Data as given in PMC8329185.

What was measured:
SNUPN (Homo sapiens) = SNUPN (Homo sapiens) (UniProt O95149); settings: cited from earlier work
GFP-CPSF6 = experiment: bead halo assay
GFP-NELF = experiment: bead halo assay
GFP-RPS6KA3 = experiment: bead halo assay
GFP-SRSF7 = experiment: bead halo assay
GFP-TRAP1 = experiment: bead halo assay
EIF5A (Homo sapiens) = EIF5A (Homo sapiens) (UniProt P63241); settings: cited from earlier work
Chain of EIF5A (Homo sapiens) (P63241 2-154): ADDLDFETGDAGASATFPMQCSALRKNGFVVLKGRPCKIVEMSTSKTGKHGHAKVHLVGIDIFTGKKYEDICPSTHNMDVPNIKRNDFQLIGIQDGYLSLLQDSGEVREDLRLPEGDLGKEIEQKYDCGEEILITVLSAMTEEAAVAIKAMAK

Chain of CRM1 (O14980 whole entry): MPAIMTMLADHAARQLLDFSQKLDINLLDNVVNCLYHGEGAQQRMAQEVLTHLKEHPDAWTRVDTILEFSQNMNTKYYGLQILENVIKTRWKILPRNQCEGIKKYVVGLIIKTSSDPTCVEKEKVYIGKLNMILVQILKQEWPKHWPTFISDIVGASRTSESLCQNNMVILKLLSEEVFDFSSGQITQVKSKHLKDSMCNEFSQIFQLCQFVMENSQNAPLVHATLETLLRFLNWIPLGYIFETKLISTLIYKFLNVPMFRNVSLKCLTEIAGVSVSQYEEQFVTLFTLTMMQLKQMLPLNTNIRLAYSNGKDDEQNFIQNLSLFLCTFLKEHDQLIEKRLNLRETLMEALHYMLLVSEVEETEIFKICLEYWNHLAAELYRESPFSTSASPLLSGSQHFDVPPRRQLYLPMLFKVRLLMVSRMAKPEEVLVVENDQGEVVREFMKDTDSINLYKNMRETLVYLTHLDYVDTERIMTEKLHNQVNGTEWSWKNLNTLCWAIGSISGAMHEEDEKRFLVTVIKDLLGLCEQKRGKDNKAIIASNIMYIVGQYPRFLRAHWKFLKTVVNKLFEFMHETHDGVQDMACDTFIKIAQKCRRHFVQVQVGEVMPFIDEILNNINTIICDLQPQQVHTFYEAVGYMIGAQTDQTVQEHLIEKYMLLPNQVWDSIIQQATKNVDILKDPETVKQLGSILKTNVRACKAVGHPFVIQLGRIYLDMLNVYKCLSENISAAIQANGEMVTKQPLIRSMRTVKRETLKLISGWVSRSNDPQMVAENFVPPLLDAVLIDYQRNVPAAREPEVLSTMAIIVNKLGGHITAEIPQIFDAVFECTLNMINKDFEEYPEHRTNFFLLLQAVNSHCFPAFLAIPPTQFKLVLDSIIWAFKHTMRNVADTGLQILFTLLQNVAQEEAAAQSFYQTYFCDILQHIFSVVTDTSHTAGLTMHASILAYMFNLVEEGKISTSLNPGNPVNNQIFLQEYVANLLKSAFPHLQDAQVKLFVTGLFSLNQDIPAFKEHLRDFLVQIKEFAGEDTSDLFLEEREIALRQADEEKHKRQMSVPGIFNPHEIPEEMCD
Chain of SNUPN (Homo sapiens) (O95149 whole entry): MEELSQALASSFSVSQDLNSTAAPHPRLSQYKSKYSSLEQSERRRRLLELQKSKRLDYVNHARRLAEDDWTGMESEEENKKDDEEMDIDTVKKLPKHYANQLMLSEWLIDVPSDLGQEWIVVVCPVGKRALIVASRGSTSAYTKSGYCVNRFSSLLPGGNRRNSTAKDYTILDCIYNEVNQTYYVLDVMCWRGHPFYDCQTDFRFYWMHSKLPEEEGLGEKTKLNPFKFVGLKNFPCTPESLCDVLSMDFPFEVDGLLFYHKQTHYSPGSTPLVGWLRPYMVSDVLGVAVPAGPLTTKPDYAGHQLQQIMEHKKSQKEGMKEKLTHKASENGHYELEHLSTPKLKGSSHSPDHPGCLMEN
Chain of Xpo4 (Q9C0E2 whole entry): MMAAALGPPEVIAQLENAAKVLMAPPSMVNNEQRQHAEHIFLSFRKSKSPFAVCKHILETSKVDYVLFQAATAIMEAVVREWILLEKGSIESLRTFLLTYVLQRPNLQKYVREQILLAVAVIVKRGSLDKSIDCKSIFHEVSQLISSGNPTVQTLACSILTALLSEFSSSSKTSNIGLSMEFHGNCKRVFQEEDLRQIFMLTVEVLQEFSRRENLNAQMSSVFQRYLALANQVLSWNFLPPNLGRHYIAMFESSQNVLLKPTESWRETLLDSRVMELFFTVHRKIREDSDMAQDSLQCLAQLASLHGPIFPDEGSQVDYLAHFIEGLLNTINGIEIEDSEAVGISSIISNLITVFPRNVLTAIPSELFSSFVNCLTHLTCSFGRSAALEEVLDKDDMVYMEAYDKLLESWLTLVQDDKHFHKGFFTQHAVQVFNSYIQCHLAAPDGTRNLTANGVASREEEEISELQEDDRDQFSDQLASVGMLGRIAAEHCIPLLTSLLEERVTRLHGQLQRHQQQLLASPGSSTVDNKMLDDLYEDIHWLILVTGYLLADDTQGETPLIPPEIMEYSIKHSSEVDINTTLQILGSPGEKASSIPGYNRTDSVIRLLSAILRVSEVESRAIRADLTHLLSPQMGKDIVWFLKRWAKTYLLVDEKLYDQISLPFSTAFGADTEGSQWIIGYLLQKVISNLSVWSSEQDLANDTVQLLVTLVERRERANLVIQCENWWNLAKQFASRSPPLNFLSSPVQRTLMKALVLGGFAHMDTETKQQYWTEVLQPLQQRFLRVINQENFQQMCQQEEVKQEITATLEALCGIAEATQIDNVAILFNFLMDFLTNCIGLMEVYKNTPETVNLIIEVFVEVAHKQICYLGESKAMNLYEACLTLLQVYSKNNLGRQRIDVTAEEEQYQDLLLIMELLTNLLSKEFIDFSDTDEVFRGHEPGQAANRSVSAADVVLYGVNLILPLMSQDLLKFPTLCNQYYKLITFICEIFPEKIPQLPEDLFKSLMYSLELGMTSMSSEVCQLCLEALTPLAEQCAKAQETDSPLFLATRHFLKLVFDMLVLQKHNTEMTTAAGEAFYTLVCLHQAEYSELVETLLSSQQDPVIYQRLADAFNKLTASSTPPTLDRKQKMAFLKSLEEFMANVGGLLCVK

Row | Substance | response (GFP-CPSF6) | response (GFP-NELF) | response (GFP-RPS6KA3) | response (GFP-SRSF7) | response (GFP-TRAP1) | Kd (SNUPN (Homo sapiens)) | Kd (EIF5A (Homo sapiens))
1 | CRM1 (from UniProt O14980) |  |  |  |  |  | 10 nM | 
2 | Xpo4 (from UniProt Q9C0E2) |  |  |  |  |  |  | 2 nM

Further lines, with some results ahead:

Row | response (GFP-CPSF6) | response (GFP-NELF) | response (GFP-RPS6KA3) | response (GFP-SRSF7) | response (GFP-TRAP1) | Substance | Kd (SNUPN (Homo sapiens)) | Kd (EIF5A (Homo sapiens))
3 | 0.46 GFP/mCherry | 2.89 GFP/mCherry | 0.13 GFP/mCherry | 0.67 GFP/mCherry | 1.35 GFP/mCherry | GST-mCherry-TrnSR (WT) (from UniProt Q9Y5L0) D409R |  | 
4 | 0.15 GFP/mCherry | 1.14 GFP/mCherry | 0.09 GFP/mCherry | 0.94 GFP/mCherry | 1.11 GFP/mCherry | GST-mCherry-TrnSR (WT) (from UniProt Q9Y5L0) E398R |  | 
5 | 0.15 GFP/mCherry | 0.5 GFP/mCherry | 0.37 GFP/mCherry | 0.26 GFP/mCherry | 1.16 GFP/mCherry | GST-mCherry-TrnSR (WT) (from UniProt Q9Y5L0) R671E |  | 
